# Key:
# [1] = biological target: gp120 (isolate 92BR020) (HIV-1 isolate 92BR020); assay: ELISA on gp120 (isolate 92BR020), buffer pH 5.5
# JR-CSF T198A [2] = biological target: JR-CSF T198A
# BG505 S365A [3] = biological target: BG505 S365A
# JR-CSF S365A [4] = biological target: JR-CSF S365A
# BG505 L179A [5] = biological target: BG505 L179A
# BG505 K121A [6] = biological target: BG505 K121A
# BG505 L369A [7] = biological target: BG505 L369A
# BG505 S364A [8] = biological target: BG505 S364A
# JR-CSF N283A [9] = biological target: JR-CSF N283A
# JR-CSF S199A [10] = biological target: JR-CSF S199A
# JR-CSF N362A [11] = biological target: JR-CSF N362A
# JR-CSF R476A [12] = biological target: JR-CSF R476A
# [13] = biological target: JR-CSF Env on JR-CSF pseudovirus
# BG505 N363A [14] = biological target: BG505 N363A
# BG505 T372A [15] = biological target: BG505 T372A
# JR-CSF N276A [16] = biological target: JR-CSF N276A
# BG505 R476A [17] = biological target: BG505 R476A
# JR-CSF G471A [18] = biological target: JR-CSF G471A
# [19] = biological target: BG505 Env on BG505 pseudovirus (HIV isolate BG505)
# JR-CSF K207A [20] = biological target: JR-CSF K207A
# BG505 N332T [21] = biological target: BG505 N332T
# BG505 T373A [22] = biological target: BG505 T373A
# BG505 G471A [23] = biological target: BG505 G471A
# [24] = biological target: gp120 (isolate 92BR020) (HIV-1 isolate 92BR020); assay: ELISA on gp120 (isolate 92BR020), buffer pH 6
# [25] = biological target: BG505 gp120 captured from lysed virions (HIV isolate BG505); assay: ELISA on BG505 gp120 in PBS pH 7.4
# JR-CSF N279A = assay: ELISA, gp120 captured from lysed virions
# JR-CSF G472A = assay: ELISA, gp120 captured from lysed virions
# JR-CSF N262A = assay: ELISA, gp120 captured from lysed virions
# JR-CSF T198A [26] = assay: ELISA, gp120 captured from lysed virions
# BG505 S365A [27] = assay: ELISA, gp120 captured from lysed virions
# BG505 G366A = assay: ELISA, gp120 captured from lysed virions
# BG505 G367A = assay: ELISA, gp120 captured from lysed virions
# JR-CSF S365A [28] = assay: ELISA, gp120 captured from lysed virions
# JR-CSF V371A = assay: ELISA, gp120 captured from lysed virions
# JR-CSF E370A = assay: ELISA, gp120 captured from lysed virions
# JR-CSF T373A = assay: ELISA, gp120 captured from lysed virions
# BG505 L179A [29] = assay: ELISA, gp120 captured from lysed virions
# JR-CSF G366A = assay: ELISA, gp120 captured from lysed virions
# BG505 K121A [30] = assay: ELISA, gp120 captured from lysed virions
# BG505 L369A [31] = assay: ELISA, gp120 captured from lysed virions
# BG505 V371A = assay: ELISA, gp120 captured from lysed virions
# JR-CSF G473A = assay: ELISA, gp120 captured from lysed virions
# BG505 S364A [32] = assay: ELISA, gp120 captured from lysed virions
# JR-CSF N283A [33] = assay: ELISA, gp120 captured from lysed virions
# JR-CSF S199A [34] = assay: ELISA, gp120 captured from lysed virions
# JR-CSF N362A [35] = assay: ELISA, gp120 captured from lysed virions
# JR-CSF R476A [36] = assay: ELISA, gp120 captured from lysed virions
# BG505 N283A = assay: ELISA, gp120 captured from lysed virions
# BG505 N363A [37] = assay: ELISA, gp120 captured from lysed virions
# BG505 T372A [38] = assay: ELISA, gp120 captured from lysed virions
# JR-CSF N276A [39] = assay: ELISA, gp120 captured from lysed virions
# BG505 R476A [40] = assay: ELISA, gp120 captured from lysed virions
# JR-CSF G471A [41] = assay: ELISA, gp120 captured from lysed virions
# BG505 E370A = assay: ELISA, gp120 captured from lysed virions
# [42] = biological target: BG505 gp120 captured from lysed virions (HIV isolate BG505); assay: ELISA, gp120 captured from lysed virions
# JR-CSF K207A [43] = assay: ELISA, gp120 captured from lysed virions
# BG505 N332T [44] = assay: ELISA, gp120 captured from lysed virions
# BG505 T373A [45] = assay: ELISA, gp120 captured from lysed virions
# BG505 G471A [46] = assay: ELISA, gp120 captured from lysed virions
# BG505 N197A = assay: ELISA, gp120 captured from lysed virions
# BG505 M475A = assay: ELISA, gp120 captured from lysed virions
substance,measurement,setting,value
12A12 (antibody),EC50 (read off the curve),[1],0.4 µg/mL
same,"IC50, pseudovirus neutralization",JR-CSF T198A [2],0.622 µg/mL
same,"IC50, pseudovirus neutralization",BG505 S365A [3],0.057 µg/mL
same,"IC50, pseudovirus neutralization",JR-CSF S365A [4],0.18 µg/mL
same,"IC50, pseudovirus neutralization",BG505 N262A,0.017 µg/mL
same,"IC50, pseudovirus neutralization",JR-CSF M373A,0.134 µg/mL
same,"IC50, pseudovirus neutralization",BG505 L179A [5],0.056 µg/mL
same,"IC50, pseudovirus neutralization",BG505 K121A [6],0.053 µg/mL
same,"IC50, pseudovirus neutralization",BG505 L369A [7],0.03 µg/mL
same,"IC50, pseudovirus neutralization",BG505 S364A [8],0.032 µg/mL
same,"IC50, pseudovirus neutralization",JR-CSF N283A [9],0.219 µg/mL
same,"IC50, pseudovirus neutralization",BG505 N276A,0.003 µg/mL
same,"IC50, pseudovirus neutralization",JR-CSF D474A,0.075 µg/mL
same,"IC50, pseudovirus neutralization",BG505 N279A,0.058 µg/mL
same,"IC50, pseudovirus neutralization",JR-CSF P369A,0.205 µg/mL
same,"IC50, pseudovirus neutralization",JR-CSF S199A [10],0.032 µg/mL
same,"IC50, pseudovirus neutralization",BG505 K282A,0.04 µg/mL
same,"IC50, pseudovirus neutralization",JR-CSF N362A [11],0.11 µg/mL
same,"IC50, pseudovirus neutralization",JR-CSF R476A [12],0.082 µg/mL
same,"IC50, pseudovirus neutralization",[13],0.219 µg/mL
same,"IC50, pseudovirus neutralization",BG505 N363A [14],0.038 µg/mL
same,"IC50, pseudovirus neutralization",BG505 T372A [15],0.037 µg/mL
same,"IC50, pseudovirus neutralization",JR-CSF N276A [16],2.72 µg/mL
same,"IC50, pseudovirus neutralization",BG505 R476A [17],0.026 µg/mL
same,"IC50, pseudovirus neutralization",JR-CSF G471A [18],0.114 µg/mL
same,"IC50, pseudovirus neutralization",[19],0.02 µg/mL
same,"IC50, pseudovirus neutralization",JR-CSF D279A,> 50 µg/mL
same,"IC50, pseudovirus neutralization",JR-CSF K207A [20],0.383 µg/mL
same,"IC50, pseudovirus neutralization",BG505 N332T [21],0.031 µg/mL
same,"IC50, pseudovirus neutralization",BG505 T373A [22],0.039 µg/mL
same,"IC50, pseudovirus neutralization",BG505 G471A [23],0.029 µg/mL
same,"IC50, pseudovirus neutralization",JR-CSF V372A,0.214 µg/mL
same,"IC50, pseudovirus neutralization",BG505 D474A,0.02 µg/mL
same,"IC50, pseudovirus neutralization",JR-CSF K282A,2.33 µg/mL
same,EC50 (read off the curve),[24],0.4 µg/mL
NC-Cow1 (antibody),EC50 (read off the curve),[25],0.1 µg/mL
same,"IC50, pseudovirus neutralization",JR-CSF T198A [2],2.98 µg/mL
same,"IC50, pseudovirus neutralization",BG505 S365A [3],0.015 µg/mL
same,"IC50, pseudovirus neutralization",JR-CSF S365A [4],0.129 µg/mL
same,"IC50, pseudovirus neutralization",BG505 L179A [5],0.018 µg/mL
same,"IC50, pseudovirus neutralization",BG505 K121A [6],0.029 µg/mL
same,"IC50, pseudovirus neutralization",BG505 L369A [7],0.015 µg/mL
same,"IC50, pseudovirus neutralization",BG505 S364A [8],0.014 µg/mL
same,"IC50, pseudovirus neutralization",JR-CSF N283A [9],6.94 µg/mL
same,"IC50, pseudovirus neutralization",JR-CSF S199A [10],0.404 µg/mL
same,"IC50, pseudovirus neutralization",JR-CSF N362A [11],0.496 µg/mL
same,"IC50, pseudovirus neutralization",JR-CSF R476A [12],> 50 µg/mL
same,"IC50, pseudovirus neutralization",BG505 N363A [14],0.013 µg/mL
same,"IC50, pseudovirus neutralization",BG505 T372A [15],0.028 µg/mL
same,"IC50, pseudovirus neutralization",JR-CSF N276A [16],1.76 µg/mL
same,"IC50, pseudovirus neutralization",BG505 R476A [17],0.012 µg/mL
same,"IC50, pseudovirus neutralization",JR-CSF G471A [18],50 µg/mL
same,"IC50, pseudovirus neutralization",JR-CSF K207A [20],1.8 µg/mL
same,"IC50, pseudovirus neutralization",BG505 N332T [21],0.018 µg/mL
same,"IC50, pseudovirus neutralization",BG505 T373A [22],0.016 µg/mL
same,"IC50, pseudovirus neutralization",BG505 G471A [23],0.013 µg/mL
same,EC50,JR-CSF N279A,0.036 µg/mL
same,EC50,JR-CSF G472A,11.2 µg/mL
same,EC50,JR-CSF N262A,5.64 µg/mL
same,EC50,JR-CSF T198A [26],0.045 µg/mL
same,EC50,BG505 S365A [27],0.07 µg/mL
same,EC50,BG505 G366A,0.13 µg/mL
same,EC50,BG505 G367A,1.34 µg/mL
same,EC50,JR-CSF S365A [28],0.028 µg/mL
same,EC50,JR-CSF V371A,1.36 µg/mL
same,EC50,JR-CSF E370A,1.16 µg/mL
same,EC50,JR-CSF T373A,0.067 µg/mL
same,EC50,BG505 L179A [29],0.05 µg/mL
same,EC50,JR-CSF G366A,0.027 µg/mL
same,EC50,BG505 K121A [30],0.04 µg/mL
same,EC50,BG505 L369A [31],0.24 µg/mL
same,EC50,BG505 V371A,0.24 µg/mL
same,EC50,JR-CSF G473A,6.83 µg/mL
same,EC50,BG505 S364A [32],0.14 µg/mL
same,EC50,JR-CSF N283A [33],0.133 µg/mL
same,EC50,JR-CSF S199A [34],0.058 µg/mL
same,EC50,JR-CSF N362A [35],0.038 µg/mL
same,EC50,JR-CSF R476A [36],0.281 µg/mL
same,EC50,BG505 N283A,0.1 µg/mL
same,EC50,BG505 N363A [37],0.09 µg/mL
same,EC50,BG505 T372A [38],0.07 µg/mL
same,EC50,JR-CSF N276A [39],0.029 µg/mL
same,EC50,BG505 R476A [40],0.07 µg/mL
same,EC50,JR-CSF G471A [41],0.148 µg/mL
same,EC50,BG505 E370A,0.11 µg/mL
same,EC50,[42],0.04 µg/mL
same,EC50,JR-CSF K207A [43],0.052 µg/mL
same,EC50,BG505 N332T [44],0.05 µg/mL
same,EC50,BG505 T373A [45],0.12 µg/mL
same,EC50,BG505 G471A [46],0.05 µg/mL
same,EC50,BG505 N197A,0.04 µg/mL
same,EC50,BG505 M475A,0.08 µg/mL

# Source: US20200165324A1
